Data as given in publication PMC5551578 (2017).

T1: tetanus toxoid (UniProt P04958 1-1315)
T1 chain: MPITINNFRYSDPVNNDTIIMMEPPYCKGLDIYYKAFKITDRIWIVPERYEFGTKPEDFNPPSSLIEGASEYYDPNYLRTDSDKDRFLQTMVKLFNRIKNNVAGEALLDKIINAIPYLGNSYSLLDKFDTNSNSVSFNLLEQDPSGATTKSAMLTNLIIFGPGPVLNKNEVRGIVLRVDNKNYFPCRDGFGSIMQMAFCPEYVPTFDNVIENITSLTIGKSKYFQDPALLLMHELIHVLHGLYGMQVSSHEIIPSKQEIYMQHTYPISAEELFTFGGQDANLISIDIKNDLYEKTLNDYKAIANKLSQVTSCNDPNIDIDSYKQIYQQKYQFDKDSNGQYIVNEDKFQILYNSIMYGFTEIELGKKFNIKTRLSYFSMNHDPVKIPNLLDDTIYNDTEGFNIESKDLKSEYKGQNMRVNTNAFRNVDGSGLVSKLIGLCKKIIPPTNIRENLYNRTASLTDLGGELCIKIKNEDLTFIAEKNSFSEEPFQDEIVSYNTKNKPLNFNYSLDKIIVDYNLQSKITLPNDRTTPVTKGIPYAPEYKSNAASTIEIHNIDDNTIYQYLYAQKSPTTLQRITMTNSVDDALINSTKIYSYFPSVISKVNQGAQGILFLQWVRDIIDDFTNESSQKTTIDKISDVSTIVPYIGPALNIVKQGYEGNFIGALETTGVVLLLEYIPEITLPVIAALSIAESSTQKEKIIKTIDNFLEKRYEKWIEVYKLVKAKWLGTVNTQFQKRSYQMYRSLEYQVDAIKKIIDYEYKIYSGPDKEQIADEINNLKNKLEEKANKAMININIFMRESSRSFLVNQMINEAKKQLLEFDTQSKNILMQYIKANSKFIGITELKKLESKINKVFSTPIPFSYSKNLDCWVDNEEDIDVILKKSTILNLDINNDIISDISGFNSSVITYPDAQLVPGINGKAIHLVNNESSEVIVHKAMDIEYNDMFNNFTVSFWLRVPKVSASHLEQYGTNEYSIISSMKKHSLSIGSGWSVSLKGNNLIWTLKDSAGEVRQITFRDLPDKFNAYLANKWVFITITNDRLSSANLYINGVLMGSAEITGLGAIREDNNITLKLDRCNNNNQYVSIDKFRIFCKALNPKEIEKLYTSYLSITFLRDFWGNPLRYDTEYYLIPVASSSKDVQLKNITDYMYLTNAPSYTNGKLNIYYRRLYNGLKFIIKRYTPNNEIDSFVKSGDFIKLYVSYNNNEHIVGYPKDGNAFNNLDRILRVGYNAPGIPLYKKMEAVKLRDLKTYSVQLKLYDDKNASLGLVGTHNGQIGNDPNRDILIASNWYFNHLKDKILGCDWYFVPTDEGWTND


Molecular target: T1, tetanus toxoid
Assay: ELISA

Row | Binder | EC50
1 | TT-Ab4 (antibody, V domains shown) VH: EVQLVQSGAEMKKPGSSVKVSCRMSGGKFNNYAMSWVRQAPGQGLEWVGGIIPVLGTANYAQKFQDRVAITADKSTNTAYMELSSLRSDDTAVYYCARVWGTVVTQGPSQVQYNHYGMDVWGQGTTVTVSS VL: DIQLTQSPSSLSASVGDRVTITCRATQSISSSLNWYQHKPGKAPNLLISAASNLQSGVPSRFSGSGSRTDFTLTITNLQPEDFATYYCQQSYTTPLTFGGGTKVEIK | 1060 nM
2 | TT-Ab10 (antibody, V domains shown) VH: EVQLVESGGGLVQPGGSLRVSCGASGFTFANFWMSWVRQAPGKGLEWVANINQDGNERKYVDSVKGRFTISRDNDKNSLYLQMNSLRAEDTAVYFCAREYGSYWRTYYFDDWGQGTLVTVSS VL: DIVMTQSPATLSLSPGERATLSCRASQSVSNYLAWYQQKPGQAPRLLIYDASNRASGTPARFSGSGFGTDFTLTISSLDPEDFAVYYCQQGSNWLTFGGGTKVEIK | 869 nM
3 | TT-Ab7 (antibody, V domains shown) VH: EVQLVESGGGWVQPGGSLRLSCAASGFTFNSFGSYGMSWVRQAPGKGLEWVSHISASGAATYYADSVKGRFTISRDNSKNTLLLQMNDLRGEDTATYYCARSVQQYLGLLGYWGQGTLVTVSS VL: QSVLTQSPSASASLGATVKLTCTLSSGHTNYAIAWHQLQPQKAPRYLLKISNDGSHKRGDGIPDRFSGSSSGAERYLTISSLQSEDEAEYYCQTWGAGMGMFGGGTKLTVL | 655 nM
4 | TT-Ab12 (antibody, V domains shown) VH: QVQLQESGPGLVKPSETLSLTCNVSGASISRYYWAWIRQPPGKGLEWIGYIYDSGTTTYNTSLKSRVTISRDTSKNQFSLNMMSVTAADTAVYYCARARYYYDSTGYFYGWLDPWGQGRLVTVSF VL: DIQMTQSPSTLSASVGDRVTITCRASQSINIWLAWYQQRPGKAPDLLIYKASTLQSGVPSRFSGSGSGTEFTLTISSVQPDDFATYYCQQYKSYSCSFGQGTKVEIN | 228 nM
5 | TT-Ab9 (antibody, V domains shown) VH: EVQLVESGGSLVQPGGSLRLSCVGTGFTFNTYWMSWVRQAPGKGLEWVANIKQDGREKHYVDSVMGRFTVSRDNAMNALYLQVNSLRVEDTAVYYCARGMTAWSLGGYQYDYWGQGTQVTVSS VL: DIQMTQSPSSLSASVGDTVTITCRASQGIRSDLGWYQQRPGKAPKLLVYTASTLQTGVPSRFSGSGFGTDFTLTISSLQPEDFATYYCLQNYNYPRTFGQGTKVEIK | 1050 nM
